According to patent US20100048604A1, “Ligands for Aldoketoreductases” (priority 2004, published 2010):

Experiments:
[1] = tested on: AKR1C1-AKR1C4; assay: Substrate tolerance and selectivity across the four human AKR1C isozymes; type: biochemical; details: AKR1C1-AKR1C4, purified enzymes, NADPH
Source text: (§1) AKR1C2 and AKR1C3 Selective Probes: Probes (5a-5i) were examined as substrates for the four purified human HSD isozymes (AKR1C1-AKR1C4) under standard assay conditions [catalytic quantities of enzyme, an excess of cofactor (NADPH)]. The initial reaction rates were used to derive standard kinetic parameters (kcat and Km, Materials and Methods).
(§2) Substrate tolerance of AKR1Cs: Isozyme Activity with 5a-5i: Activity of the second generation of fluorogenic substrates with the AKR1C isozymes was determined as follows. To a STARNA semi-micro fluorimeter cell (with 4 polished windows) was added 100 μL of 1 M potassium phosphate buffer (pH 6), 840 μL doubly deionized water, and 20 μL of 12.5 mM NADPH. After mixing the aqueous components thoroughly, 20 μL of acetonitrile was added as a cosolvent and mixed well. 20 μL of 2.5 mM second generation fluorogenic ketone in acetonitrile (5a-5i) was then added and mixed. 4 μL of undiluted AKR1C (provided generously by the Penning lab at concentrations of 2.5 mg/mL) were then added to the cuvette for a total of 10 μg purified enzyme in the 1 mL assay volume. Fluorescence arising from the respective alcohol reduction product was then monitored over the course of 5-10 minutes.
Binding constant and catalytic rates (Km and kcat) of the second generation of fluorogenic substrates was determined as follows. To a STARNA semi-micro fluorometer cell (with 4 polished windows) was added 100 μL of 1 M potassium phosphate buffer (pH 6), 840 μL doubly deionized water, and 20 AL of 12.5 mM NADPH. After mixing the aqueous components thoroughly, 20 μL of acetonitrile was added as a cosolvent and mixed well. […] Fluorescence arising from the respective alcohol reduction product was then monitored over the course of 3 minutes (Excitation and emission band pass slits both at 4 nm, lamp 700 V, λexc 410 nm, λem 510). The rate of product formation, expressed in units of nanomoles per minute, were calculated according to previously published procedures (Wierzchowski, J.; Dafeldecker, W. P.; Holmquist, B.; Vallee, B. L. Anal. Biochem. 1989, 178, 57-62): […]

[2] = target: T1, Thermoanaerobium brockii alcohol dehydrogenase (TBAD) (Thermoanaerobacter brockii, UniProt P14941); assay: Enzymatic screening of probes 1-7 against a panel of oxidoreductases; type: biochemical; details: 12 hour incubation, 30-50 μM substrate, pH 7, 250 μM NAD(P)H
T1 construct: purchased Sigma (St. Louis, Mo.) Lot Number 033K4093 (catalogue number not given)
T1 sequence (P14941 1-352): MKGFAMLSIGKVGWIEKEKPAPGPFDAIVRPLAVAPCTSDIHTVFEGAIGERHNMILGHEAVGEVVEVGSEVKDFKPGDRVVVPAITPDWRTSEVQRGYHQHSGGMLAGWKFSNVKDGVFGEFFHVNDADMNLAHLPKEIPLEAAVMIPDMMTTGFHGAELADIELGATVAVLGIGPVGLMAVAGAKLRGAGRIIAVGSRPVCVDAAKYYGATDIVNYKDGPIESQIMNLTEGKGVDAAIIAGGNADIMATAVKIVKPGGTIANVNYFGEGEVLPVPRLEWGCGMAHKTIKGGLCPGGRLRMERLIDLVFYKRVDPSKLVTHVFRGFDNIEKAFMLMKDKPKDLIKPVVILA
Description: (§3) FIG. 4. Screening of probes 1-7 against a panel of oxidoreductases Percentage fluorescence increase after 12 hour incubation of 30-50 μM substrate, 100 mM phosphate buffer (pH 7), 250 μM NAD(P)H, and 100 nM enzyme. Substrates 1, 2, 3, and 4 monitored at λexc=340 nm, λem=440 nm. Substrates 5, 6, and 7 monitored at λexc=440 nm, λem=510 nm. 3HSD, 3α-hydroxysteroid dehydrogenase (PT, Pseudomonas testosteroni), HLAD, horse liver alcohol dehydrogenase, TBAD, Thermoanaerobium brockii alcohol dehydrogenase, BS 12HSD, Bacillus sp. 12α-hydroxysteroid dehydrogenase, ABAD, amyloid-β binding alcohol dehydrogenase (human), GDH, glycerol dehydrogenase, YADH, yeast alcohol dehydrogenase, LDH, lactate dehydrogenase.
(§4) Probes 1-7 (see FIG. 3) were subsequently tested against a collection of dehydrogenases in the presence of NAD(P)H; the extent of reduction was assessed by the measurement of fluorescence intensity at the emission maximum of each probe (FIG. 4). This assay included enzymes from two major oxidoreductase superfamilies, the short chain alcohol dehydrogenases (SDR) and the aldo-keto reductases (AKR), ranging from bacterial to mammalian and human enzymes.
(§5) Horse Liver alcohol dehydrogenase (Lot Number 51K7520), Thermoanaerobium brockii NADP^+ dependent alcohol dehydrogenase (Lot Number 033K4093), Pseudomonas testosteroni 3α-hydroxysteroid dehydrogenase (Lot Number 053K8624), and Bacillus sphaericus 12α-hydroxysteroid dehydrogenase (Lot Number 70K16621) were purchased from Sigma (St. Louis, Mo.). Yeast alcohol dehydrogenase (Lot Number 93122920), glycerol dehydrogenase (Lot Number 92110122), (D)-lactate dehydrogenase (Lot Number 92419236), (L)-lactate dehydrogenase (Lot Number 92801821), NAD^+, NADP^+, NADH, and NADPH were purchased from Roche. Enzyme activity was confirmed by compliance to supplier's quality control assays prior to usage. Rat and human 3α-hydroxysteroid dehydrogenases were provided by Professor Trevor Penning (University of Pennsylvania School of Medicine) and human amyloid-β peptide binding alcohol dehydrogenase was supplied by Professor Shi Du Yan (Columbia University School for Physicians and Surgeons).
(§6) Enzymatic assays were performed in triplicate on selected fluorogenic substrates according to the following protocol. To each well of a FALCON 96-well black flat bottom plate was added (1) 40 μL of 500 mM potassium phosphate buffer pH 7.0, (2) 113 μL of double deionized water, (3) 25 μL of 2 mM NADH (except for Pseudomonas testosteroni 3α-hydroxysteroid dehydrogenase, rat 3α-hydroxysteroid dehydrogenase, and Thermoanaerobium brockii NADP^+ dependent alcohol dehydrogenase, in which cases 2 mM of NADPH was used), (4) 2 μL of a 3-5 mM solution of substrate in DMSO, and (5) 20 μL of a 40-50 μg/mL solution of enzyme. Reaction volumes were mixed thoroughly after addition of cofactor, substrate, and enzyme and allowed to react 12 hours at 25° C. Scanning of the 96-well plate was performed by the MicroMax 384 connected to a Jobin Yvon Fluorolog through F-3000 fiber optic cables.
(§7) Initial Screening with Fluorogenic Substrates: Screening of the first fluorogenic substrates for enzymatic activity has been described above. In short, 200 μL enzymatic assay volumes containing 100 mM potassium phosphate buffer (pH 7), 250 μM NAD(P)H cofactor, and 30-50 μM of ketones (1-7) were incubated for 12 hours on a black FALCON 96-well plate. Formation of the alcohol reduction product was determined by reading the fluorescence arising from excitation at the corresponding alcohol at either 340 nm (27-30) or 440 nm (31-33).

[3] = target: T2, horse liver alcohol dehydrogenase (HLAD) (Equus caballus, UniProt P00327); assay: as above; type: biochemical; details: 12 hour incubation, 30-50 μM substrate, pH 7, 250 μM NAD(P)H
T2 construct: purchased Sigma (St. Louis, Mo.) Lot Number 51K7520 (catalogue number not given)
T2 sequence (P00327 2-375 limits assumed): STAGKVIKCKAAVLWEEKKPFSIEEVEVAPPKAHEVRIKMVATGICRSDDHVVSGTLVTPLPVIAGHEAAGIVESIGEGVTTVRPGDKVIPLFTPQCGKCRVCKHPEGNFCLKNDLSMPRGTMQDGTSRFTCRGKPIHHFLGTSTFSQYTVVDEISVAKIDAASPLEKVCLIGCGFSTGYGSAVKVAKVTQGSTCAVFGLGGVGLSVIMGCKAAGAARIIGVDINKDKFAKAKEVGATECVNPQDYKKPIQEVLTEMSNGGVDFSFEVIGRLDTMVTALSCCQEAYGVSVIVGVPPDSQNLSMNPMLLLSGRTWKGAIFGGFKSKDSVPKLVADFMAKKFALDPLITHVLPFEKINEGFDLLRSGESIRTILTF
Description: as §3, §4, §5, §6, §7

[4] = substrate: CC(=O)c1cc(=O)oc2c3c(ccc12)NCCC3; assay: Steady state kinetic parameters of fluorogenic substrates with purified AKR1C isozymes; type: biochemical, human; details: other: isozyme 1C1, potassium phosphate buffer pH 6, NADPH, fluorimetric
Source text: as §1, §2
(§8) Binding constant and catalytic rates (Km and kcat) of the second generation of fluorogenic substrates was determined as follows. To a STARNA semi-micro fluorometer cell (with 4 polished windows) was added 100 μL of 1 M potassium phosphate buffer (pH 6), 840 μL doubly deionized water, and 20 AL of 12.5 mM NADPH. After mixing the aqueous components thoroughly, 20 μL of acetonitrile was added as a cosolvent and mixed well. 20 μL of the second generation fluorogenic ketone (5a-5i) was then added and mixed to achieve assay concentrations of 5Km to Km/5. To initiate the reduction, 2 or 4 μL of diluted AKR1C (1:2 to 1:100, depending on the kinetics of a particular isozyme's reduction of a substrate) was then added to the cuvette. Fluorescence arising from the respective alcohol reduction product was then monitored over the course of 3 minutes (Excitation and emission band pass slits both at 4 nm, lamp 700 V, λexc 410 nm, λem 510). The rate of product formation, expressed in units of nanomoles per minute, were calculated according to previously published procedures (Wierzchowski, J.; Dafeldecker, W. P.; Holmquist, B.; Vallee, B. L. Anal. Biochem. 1989, 178, 57-62):
(§9) initial rate=[nst×(Ft−F0)/(Fst)]/t (1)
(§10) where Ft and F0 represent the fluorescence at times t and 0 minutes, nst is the nanomoles of product in a known concentration of product, and Fst is the fluorescence resulting from nst of product. Kinetic parameters were approximated by GraFit (Erithacus Software, Surrey, UK) nonlinear regression analysis program to fit the untransformed data to a hyperbolic function as originally described (Wierzchowski, J.; Dafeldecker, W. P.; Holmquist, B.; Vallee, B. L. Anal. Biochem. 1989, 178, 57-62). Reported enzymatic kinetic parameters are the average of three independent determinations from three different preparations of substrate and enzyme.

[5] = substrate: CC(=O)c1cc(=O)oc2c3c4c(cc12)CCCN4CCC3; assay: as above; type: biochemical, human; details: other: isozyme 1C1, potassium phosphate buffer pH 6, NADPH, fluorimetric
Source text: as §1, §2, §8, §9, §10

[6] = substrate: CC(=O)c1cc(=O)oc2cc(N(C)C)ccc12; assay: as above; type: biochemical, human; details: other: isozyme 1C1, potassium phosphate buffer pH 6, NADPH, fluorimetric
Source text: as §1, §2, §8, §9, §10

[7] = substrate: O=C(c1ccccc1)c1cc(=O)oc2c3c4c(cc12)CCCN4CCC3; assay: as above; type: biochemical, human; details: other: isozyme 1C1, potassium phosphate buffer pH 6, NADPH, fluorimetric
Source text: as §1, §2, §8, §9, §10

[8] = substrate: O=C1CCc2c1c1cc3c4c(c1oc2=O)CCCN4CCC3; assay: as above; type: biochemical, human; details: other: isozyme 1C1, potassium phosphate buffer pH 6, NADPH, fluorimetric
Source text: as §1, §2, §8, §9, §10

CC(=O)c1c(Br)c(=O)oc2c3c4c(cc12)CCCN4CCC3 [5e, 8-Acetyl-9-bromo-2,3,5,6-tetrahydro-1H,4H-11-oxa-3a-aza-benzo[de]anthracen-10-one]
acceptance as substrate by the four human isozymes [1]: not accepted as substrates by any of the tested 3a-HSD enzymes

CC(=O)c1c(-c2ccccc2)c(=O)oc2c3c4c(cc12)CCCN4CCC3 [5f, 8-Acetyl-9-phenyl-2,3,5,6-tetrahydro-1H,4H-11-oxa-3a-aza-benzo[de]anthracen-10-one]
acceptance as substrate by the four human isozymes [1]: not accepted as substrates by any of the tested 3a-HSD enzymes

CC(=O)C#Cc1cc2cc3c4c(c2oc1=O)CCCN4CCC3 [compound 7, 9-(3-Oxo-but-1-ynyl)-2,3,5,6-tetrahydro-1H,4H-11-oxa-3a-aza-benzo[de]anthracen-10-one]
reduction of probe (fluorescence increase) [2]: catalyzed reduction
reduction of probe (fluorescence increase) [3]: catalyzed reduction

COc1ccc2cc(C#CC(C)=O)c(=O)oc2c1 [compound 4, 7-Methoxy-3-(3-oxo-but-1-ynyl)-coumarin]
reduction of probe (fluorescence increase) [2]: catalyzed reduction
reduction of probe (fluorescence increase) [3]: catalyzed reduction

B1: AKR1C1 (Homo sapiens) (protein)
chain: MDSKYQCVKLNDGHFMPVLGFGTYAPAEVPKSKALEATKLAIEAGFRHIDSAHLYNNEEQVGLAIRSKIADGSVKREDIFYTSKLWCNSHRPELVRPALERSLKNLQLDYVDLYLIHFPVSVKPGEEVIPKDENGKILFDTVDLCATWEAVEKCKDAGLAKSIGVSNFNRRQLEMILNKPGLKYKPVCNQVECHPYFNQRKLLDFCKSKDIVLVAYSALGSHREEPWVDPNSPVLLEDPVLCALAKKHKRTPALIALRYQLQRGVVVLAKSYNEQRIRQNVQVFEFQLTSEEMKAIDGLNRNVRYLTLDIFAGPPNYPFSDEY
notes: gift of the Penning lab (University of Pennsylvania School of Medicine)
Km [4]: 35.3 ± 2.9 4.8 ± 0.3 8.3 ± 0.9 40.2 ± 3.4 μM
kcat [4]: 0.11 s⁻¹
kcat/Km [4]: 0.19 6.0 0.84 0.036 min^−1 μM^−1
Km [5]: 24.4 ± 2.3 7.3 ± 0.4 1.1 ± 0.1 20.6 ± 1.9 μM
kcat [5]: 0.0183 s⁻¹
kcat/Km [5]: 0.046 2.1 6.9 0.020 min^−1 μM^−1
Km [6]: 21.0 ± 1.3 7.2 ± 0.6 4.3 ± 0.3 14.8 ± 0.9 μM
kcat [6]: 0.0333 s⁻¹
kcat/Km [6]: 0.10 3.0 2.1 0.14 min^−1 μM^−1
Km [7]: 5.5 ± 0.7 3.0 ± 0.2 0.051 ± 0.005 6.2 ± 0.7 μM
kcat [7]: 0.025 s⁻¹
kcat/Km [7]: 0.27 7.8 106 0.10 min^−1 μM^−1
Km [8]: 4.0 ± 0.6 4.5 ± 0.6 0.13 μM
kcat [8]: 1.6 0.40 7.2 no activity
kcat/Km [8]: 0.39 0.08 56 min^−1 μM^−1
